# How the values were obtained:
# [1] = tested on: Balb/c mouse; experiment: HC gp-39 administration in Balb/c mice (arthritis); assay type: in vivo; conditions: administration of HC gp-39
# [2] = biological target: T1, DR4 (DRB1*0401) molecules purified from the homozygous EBV-transformed human B lymphoblastoid cell line … (human, UniProt P01903 26-254)
# [3] = biological target: T1, DR4 (DRB1*0401) molecules purified from …; experiment: competition binding assay on purified DR4(DRB1*0401)
Molecule,Arthritic development [1],Immunological tolerance [1],IC50 [2] [µM],binding result [3]
Human Cartilage glycoprotein 39 [HC gp-39],delayed and/or suppressed arthritic development,resulted in immunological tolerance,,
FSKIASNTQSRRTFIK (This is probably a misprint) [HC gp-39 peptide 15 (residues 106-121)],,,< 1,binds
SCFPDALDRFLCTHII [HC gp-39 peptide 4 (residues 40-55)],,,10 to 100,binds
LDRFLCTHIIYSFANI [HC gp-39 peptide 5 (residues 46-61)],,,< 1,binds
THIIYSFANISNDHID [HC gp-39 peptide 6 (residues 52-67)],,,< 1,binds
DFQGSFCGQDLRFPLT [HC gp-39 peptide 57 (residues 358-373)],,,1 to 10,binds
